Assay results reported in the RNAGym collection of RNA variant scans (doi:10.1093/molbev/msab373).

B1: Azoarcus group I ribozyme (parent)
chain: GUGCCUUGCGCCGGGAAACCACGCAAGGGAUGGUGUCAAAUUCGGCGAAACCUAAGCGCCCGCCCGGGCGUAUGGCAACGCCGAGCCAAGCUUCGGCGCCUGCGCCGAUGAAGGUGUAGAGACUAGACGGCACCCACCUAAGGCAAACGCUAUGGUGAAGGCAUAGUCCAGGGAGUGGCGAAAGUCACACAAACCGG

Variants of: B1
Assay: reverse-splicing fitness (ratio to wild type); higher = more active; in vitro selection; Mg2+ level not given
How it was run: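 An in vitro group I ribozyme library with randomized positions was T7-transcribed and gel-purified. In triplicate, 10 pmol RNA in EPPS pH 7.5 was reacted with 50 pmoles of a 30-nt RNA substrate for 1 h at 37 °C across several added MgCl2 levels (1–48 mM), then stopped with EDTA. Products were reverse transcribed from a substrate-complementary primer, PCR-amplified and sequenced (HiSeq 4000). Fitness is a variant's read proportion after selection over that before, normalised to wild type.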

Variant	reverse-splicing fitness
C82G A111U A120U U176A	0.0109
C82G A111U A120U U176C	0.0167
C82G A111U A120U U176G	0.00464
C82G A111U A145C	0.365
C82G A111U A145C C150A	0.0198
C82G A111U A145C C150A C169A	0.00868
C82G A111U A145C C150A C169A U176A	0.0125
C82G A111U A145C C150A C169A U176C	0.00716
C82G A111U A145C C150A C169A U176G	0.0075
C82G A111U A145C C150A C169G	0.00822
C82G A111U A145C C150A C169G U176A	0.0227
C82G A111U A145C C150A C169G U176C	0.0155
C82G A111U A145C C150A C169G U176G	0.00716
C82G A111U A145C C150A C169U	0.0105
C82G A111U A145C C150A C169U U176A	0.0163
C82G A111U A145C C150A C169U U176C	0.00987
C82G A111U A145C C150A C169U U176G	0.00599
C82G A111U A145C C150A U176A	0.0163
C82G A111U A145C C150A U176C	0.0187
C82G A111U A145C C150A U176G	0.00844
C82G A111U A145C C150G	0.0354

Variant	reverse-splicing fitness
C82G A111U A145C C150G C169A	0.00892
C82G A111U A145C C150G C169A U176A	0.00976
C82G A111U A145C C150G C169A U176C	0.00812
C82G A111U A145C C150G C169A U176G	0.00713
C82G A111U A145C C150G C169G	0.00784
C82G A111U A145C C150G C169G U176A	0.00943
C82G A111U A145C C150G C169G U176C	0.00772
C82G A111U A145C C150G C169G U176G	0.00602
C82G A111U A145C C150G C169U	0.00915
C82G A111U A145C C150G C169U U176A	0.00891
C82G A111U A145C C150G C169U U176C	0.0102
C82G A111U A145C C150G C169U U176G	0.00634
C82G A111U A145C C150G U176A	0.0157
C82G A111U A145C C150G U176C	0.0238
C82G A111U A145C C150G U176G	0.00504
C82G A111U A145C C150U	0.0722
C82G A111U A145C C150U C169A	0.00882
C82G A111U A145C C150U C169A U176A	0.0133
C82G A111U A145C C150U C169A U176C	0.00701
C82G A111U A145C C150U C169A U176G	0.00702
C82G A111U A145C C150U C169G	0.00762

Variant	reverse-splicing fitness
C82G A111U A145C C150U C169G U176A	0.022
C82G A111U A145C C150U C169G U176C	0.0132
C82G A111U A145C C150U C169G U176G	0.00635
C82G A111U A145C C150U C169U	0.0104
C82G A111U A145C C150U C169U U176A	0.0136
C82G A111U A145C C150U C169U U176C	0.0098
C82G A111U A145C C150U C169U U176G	0.00613
C82G A111U A145C C150U U176A	0.0473
C82G A111U A145C C150U U176C	0.0544
C82G A111U A145C C150U U176G	0.0188
C82G A111U A145C C169A	0.00732
C82G A111U A145C C169A U176A	0.0121
C82G A111U A145C C169A U176C	0.00791
C82G A111U A145C C169A U176G	0.00501
C82G A111U A145C C169G	0.00826
C82G A111U A145C C169G U176A	0.0258
C82G A111U A145C C169G U176C	0.0144
C82G A111U A145C C169G U176G	0.00528
C82G A111U A145C C169U	0.0121
C82G A111U A145C C169U U176A	0.014
C82G A111U A145C C169U U176C	0.0119

Variant	reverse-splicing fitness
C82G A111U A145C C169U U176G	0.00474
C82G A111U A145C U176A	0.19
C82G A111U A145C U176C	0.224
C82G A111U A145C U176G	0.0756
C82G A111U A145G	0.424
C82G A111U A145G C150A	0.0434
C82G A111U A145G C150A C169A	0.0112
C82G A111U A145G C150A C169A U176A	0.0183
C82G A111U A145G C150A C169A U176C	0.0216
C82G A111U A145G C150A C169A U176G	0.00721
C82G A111U A145G C150A C169G	0.00989
C82G A111U A145G C150A C169G U176A	0.0179
C82G A111U A145G C150A C169G U176C	0.0282
C82G A111U A145G C150A C169G U176G	0.00671
C82G A111U A145G C150A C169U	0.0113
C82G A111U A145G C150A C169U U176A	0.0166
C82G A111U A145G C150A C169U U176C	0.0149
C82G A111U A145G C150A C169U U176G	0.00791
C82G A111U A145G C150A U176A	0.0322
C82G A111U A145G C150A U176C	0.0447
C82G A111U A145G C150A U176G	0.0141
